Paper PMC5316805, “Potent single-domain antibodies that arrest respiratory syncytial virus fusion protein in its prefusion state” (Nature Communications, 2017)

B1: F-VHH-L66 (VHH)
VHH: QVQLQESGGGLVQPGGSLRLSCAASGFTLDYYYIGWFRQAPGKEREGVSCISSSHGSTYYADSVKGRFTISRDNAKNTVYLQMNSLKPEDTAVYYCATVAVAHFRGCGVDGMDYWGKGTQVTVSS
notes: llama VHH; also in PDB 5TOK; Disulfide between Cys50 (CDR2) and Cys100c (CDR3), Kabat numbering; source: P. pastoris GS115, secreted, purified (ammonium sulfate precipitation, HisTrap HP, Superdex 75); not shown: His6, C-terminal, kept
B2: F-VHH-4 (VHH)
VHH: QVQLQESGGGLVQPGGSLRLSCAASGFTLDYYYIGWFRQAPGKEREAVSCISGSSGSTYYPDSVKGRFTISRDNAKNTVYLQMNSLKPEDTAVYYCATIRSSSWGGCVHYGMDYWGKGTQVTVSS
notes: llama VHH; also in PDB 5TP3 and 5TOJ; Disulfide between Cys50 (CDR2) and Cys100c (CDR3), Kabat numbering; the Pichia-made protein was used in the complex crystals; also called clone 4; source: P. pastoris GS115, secreted, purified (ammonium sulfate precipitation, HisTrap HP, Superdex 75); not shown: His6, C-terminal, kept

Tests used:
[1] = target: T1, prefusion-stabilized RSV F (DS-Cav1) with a C-terminal Strep-tag II and 6X HisTag (human respiratory syncytial virus A2 …, stabilised); assay: SPR; DS-Cav1 captured by its His tag on an NTA chip to ~530 RU each cycle (Biacore X100); VHH 2-fold dilutions 5 nM to 39.1 pM in HBS-P+; double-reference subtracted, 1:1 binding model (Scrubber); conditions: both partners purified
T1 construct: RSV fusion (F) protein, F2 subunit (N-terminal cut product of F0) of DS-Cav1; RSV fusion (F) protein, soluble part of the F1 subunit (C-terminal cut product of F0) of DS-Cav1; also called prefusion F; prefusion RSV F; source: purified; not shown: Strep-tag II, C-terminal, kept; His6, C-terminal, kept; copies: 3 + 3

[2] = target: RSV A2 F, full length, on RSV A2-infected cells and virions (human respiratory syncytial virus A2, UniProt P03420); assay: cell-based or functional assay

Binder	Kd [1] [pM]	koff [1] [s⁻¹]	kon [1] [M⁻¹ s⁻¹]	plaque-reduction neutralisation of RSV A2 and RSV B49 on Vero cells, IC50 [2] [pM]
B1	154	5e-05	330000	< 100
B2	< 18	< 1e-05	570000	< 100
